The values below come from article PMC5601012 (Molecular pharmaceutics, 2017).

Where two headings read alike, the source gives them in different places.

The target in test [1] is T1, programmed death-1 (PD-1) on EL4 cells (mouse (endogenous in EL4), UniProt Q02242). As to the kind of experiment: flow cytometry on cells.
Test [2] addresses T1, programmed death-1 (PD-1) on EL4 cells. The test can be described thus: flow cytometry on cells. The source holds these as a separate data set.

T1 sequence (Q02242 25-288): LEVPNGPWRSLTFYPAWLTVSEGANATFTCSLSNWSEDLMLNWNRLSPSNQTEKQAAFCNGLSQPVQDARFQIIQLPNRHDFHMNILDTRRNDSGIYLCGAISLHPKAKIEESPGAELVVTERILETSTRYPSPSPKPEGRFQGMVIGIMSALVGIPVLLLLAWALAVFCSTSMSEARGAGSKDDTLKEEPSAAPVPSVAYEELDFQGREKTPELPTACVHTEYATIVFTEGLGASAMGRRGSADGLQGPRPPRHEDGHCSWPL

B1: αPD-1 scFv, NH2-Histag(H6)-(GGGSG)3-VH-(GGGSG)4-VL-COOH (scFv, V domains shown)
VH: EVQLQESGPGLVKPSQSLSLTCSVTGYSITSSYRWNWIRKFPGNRLEWMGYINSAGISNYNPSLKRRISITRDTSKNQFFLQVNSVTTEDAATYYCARSDNMGTTPFTYWGQGTLVTVSS
VL: DIVMTQGTLPNPVPSGESVSITCRSSKSLLYSDGKTYLNWYLQRPGQSPQLLIYWMSTRASGVSDRFSGSGSGTDFTLKISGVEAEDVGIYYCQQGLEFPTFGGGTKLELK
For B1, the results for the EC50 in test [1] and in test [2] were 4160 nM and 320 nM, respectively.

B2: intact anti-programmed death-1 antibody (αPD-1), clone RMP1-14 (antibody, V domains shown)
VH: B1 VH
VL: B1 VL
B2: the EC50 in test [1] was determined as 1320 nM.
